# Measured values as given in article PMC8647176, “Helical filament structure of the DREP3 CIDE domain reveals a unified mechanism of CIDE-domain assembly” (Acta Crystallographica. Section D, Structural Biology, 2021).
# Biological target: the molecule itself
# Assay: SEC; Superdex 200 Increase 10/300 GL, 20 mM Tris-HCl pH 7.9, 500 mM NaCl; also series at 1, 5 and 15 mg ml^-1 protein and at four NaCl concentrations
protein,measurement,value
"DREP3 CIDE domain (DNA fragmentation factor-related protein 3, residues Phe112-Asp195) (domain or fragment, Drosophila melanogaster, UniProt Q0E9B7 112-195, looked up, DREP3 (DNA fragmentation factor-related protein 3), Drosophila melanogaster, UniProt Q0E9B7, CIDE domain, residues Phe112-Asp195; Cloned with NdeI and XhoI into pET-21a; The final model of PDB 7v6e holds residues 117-193; also called wild-type DREP3 CIDE domain; WT DREP3 CIDE domain; source: E. coli BL21 (DE3), purified (Ni-NTA, SEC)) FAQLDNSKPFKIKDITRNIRKAVVATTLSELRTKVSLKFERAQPAIHLDCDGTEVDDEEYFSTLEPNAELIAVFPGEQWRDPSD",binding result,binds
